From paper PMC3102710

Biological target: SARS-CoV nsp10 (SARS-CoV Frankfurt-1)
Experiment: pull-down

Work on SARS-CoV nsp16 (enzyme) yielded a % associated of 100%.
